Paper PMC7717565 (PLoS Biology, 2020)

Biological target: Rabbit skeletal muscle α-actin, filamentous (F-actin) (rabbit, UniProt P68135 1-377)
Settings: both partners purified

B1: E16R Lifeact–mCherry (peptide)
chain: MGVADLIKKFESISKRE
notes: One of the plasmids 2479, 2556, 2557, 2558; also called E16R Lifeact variant; source: E. coli BL21-CodonPlus(DE3)-RIPL, purified (Protino Ni-IDA resin, dialysis)
Kd: 6 ± 0.7 µM

B2: E17K Lifeact–mCherry (peptide)
chain: MGVADLIKKFESISKEK
notes: Lifeact (17 N-terminal residues of yeast ABP140) with E17K, fused to mCherry; One of the plasmids 2479, 2556, 2557, 2558; also called E17K variant of Lifeact; source: E. coli BL21-CodonPlus(DE3)-RIPL, purified (Protino Ni-IDA resin, dialysis)
Kd: 8.1 ± 0.6 µM
